This is an account of results in publication PMC12052844 (iScience, 2025).

In one experiment the target is EphA4 receptor on cells (UniProt Q03137). The experiment is described as follows: flow cytometry on cells. Background: Flow cytometry measures light scatter and fluorescence of single cells or particles in a stream.
The target in experiment [1] is T1, full-length wild-type EphB2 on the surface of Expi293F cells (mouse, UniProt P54763-3).
T1 sequence: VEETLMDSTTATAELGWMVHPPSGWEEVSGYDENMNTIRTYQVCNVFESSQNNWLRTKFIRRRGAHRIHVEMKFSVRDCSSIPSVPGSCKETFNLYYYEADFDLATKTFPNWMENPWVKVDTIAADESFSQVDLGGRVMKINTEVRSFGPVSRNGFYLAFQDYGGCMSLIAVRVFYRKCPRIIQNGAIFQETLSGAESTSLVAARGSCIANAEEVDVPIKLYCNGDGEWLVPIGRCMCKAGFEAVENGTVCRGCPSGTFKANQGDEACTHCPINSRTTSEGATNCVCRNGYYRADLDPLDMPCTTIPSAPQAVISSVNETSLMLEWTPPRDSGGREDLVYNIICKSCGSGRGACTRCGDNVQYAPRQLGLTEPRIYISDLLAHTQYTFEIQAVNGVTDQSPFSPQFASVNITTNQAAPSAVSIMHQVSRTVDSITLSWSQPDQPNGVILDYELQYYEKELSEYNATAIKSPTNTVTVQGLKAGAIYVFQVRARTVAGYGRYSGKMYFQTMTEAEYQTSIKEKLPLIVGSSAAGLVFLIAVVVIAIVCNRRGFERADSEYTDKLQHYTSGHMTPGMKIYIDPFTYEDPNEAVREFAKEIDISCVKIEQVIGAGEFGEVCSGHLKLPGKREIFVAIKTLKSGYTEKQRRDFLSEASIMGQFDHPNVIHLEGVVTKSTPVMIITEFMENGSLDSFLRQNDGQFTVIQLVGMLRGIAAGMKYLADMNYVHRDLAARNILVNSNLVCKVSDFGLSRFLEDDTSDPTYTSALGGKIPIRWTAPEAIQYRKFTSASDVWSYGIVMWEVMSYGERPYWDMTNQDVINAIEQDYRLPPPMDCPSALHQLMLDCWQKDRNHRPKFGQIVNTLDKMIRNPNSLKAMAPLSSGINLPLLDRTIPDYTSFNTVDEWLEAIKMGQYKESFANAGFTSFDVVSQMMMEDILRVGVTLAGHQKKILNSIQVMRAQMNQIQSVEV
In words: flow cytometry on cells.

Chain of EphA4 receptor on cells (Q03137 20-986): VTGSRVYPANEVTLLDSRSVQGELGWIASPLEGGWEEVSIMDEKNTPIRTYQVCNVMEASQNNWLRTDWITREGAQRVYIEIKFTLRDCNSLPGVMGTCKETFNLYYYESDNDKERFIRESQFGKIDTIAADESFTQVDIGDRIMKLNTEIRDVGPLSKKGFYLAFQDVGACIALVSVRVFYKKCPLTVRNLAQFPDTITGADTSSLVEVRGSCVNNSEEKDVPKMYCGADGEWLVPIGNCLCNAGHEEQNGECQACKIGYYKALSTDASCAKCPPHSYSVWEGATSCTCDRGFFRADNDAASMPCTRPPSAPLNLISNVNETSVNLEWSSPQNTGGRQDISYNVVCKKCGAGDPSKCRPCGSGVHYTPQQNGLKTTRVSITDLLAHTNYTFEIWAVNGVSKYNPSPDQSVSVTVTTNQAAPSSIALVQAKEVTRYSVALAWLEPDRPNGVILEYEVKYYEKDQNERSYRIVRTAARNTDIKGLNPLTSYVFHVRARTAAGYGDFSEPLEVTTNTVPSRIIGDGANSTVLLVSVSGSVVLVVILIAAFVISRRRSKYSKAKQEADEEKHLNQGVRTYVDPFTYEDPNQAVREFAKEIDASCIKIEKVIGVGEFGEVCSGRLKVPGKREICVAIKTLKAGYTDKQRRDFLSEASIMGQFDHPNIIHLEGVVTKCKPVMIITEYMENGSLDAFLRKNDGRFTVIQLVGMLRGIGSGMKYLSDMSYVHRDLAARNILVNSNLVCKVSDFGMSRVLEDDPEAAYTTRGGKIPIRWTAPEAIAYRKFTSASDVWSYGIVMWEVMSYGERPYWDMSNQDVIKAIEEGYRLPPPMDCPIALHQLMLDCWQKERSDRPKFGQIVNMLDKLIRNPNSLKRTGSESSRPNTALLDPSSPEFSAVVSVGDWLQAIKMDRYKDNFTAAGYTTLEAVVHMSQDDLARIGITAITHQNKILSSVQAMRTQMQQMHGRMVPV

Consider “pre-clustered ephrin-B2 (receptor binding domain of murine ephrin-B2, residues 30-170, biotinylated) (from UniProt P52800 30-170) (ligand)”, for which the Kd – broadly, the equilibrium constant for the complex coming apart – with EphA4 receptor on cells was found to be 501 nM. This lies in the sub-micromolar range.

B1: pre-clustered ephrin-A5 (receptor binding domain of murine ephrin-A5, residues 28-164, biotinylated) (ligand)
chain: VADRYAVYWNSSNPRFQRGDYHIDVCINDYLDVFCPHYEDSVPEDKTERYVLYMVNFDGYSACDHTSKGFKRWECNRPHSPNGPLKFSEKFQLFTPFSLGFEFRPGREYFYISSAIPDNGRRSCLKLKVFVRPTNSC
modifications: biotin on the Avi tag (BirA)
Molecule B1 gave a Kd in experiment [1] of 112 nM. This counts as sub-micromolar.

B2: pre-clustered ephrin-B2 (receptor binding domain of murine ephrin-B2, residues 30-170, biotinylated) (ligand)
chain: SIVLEPIYWNSSNSKFLPGQGLVLYPQIGDKLDIICPKVDSKTVGQYEYYKVYMVDKDQADRCTIKKENTPLLNCARPDQDVKFTIKFQEFSPNLWGLEFQKNKDYYIISTSNGSLEGLDNQEGGVCQTRAMKILMKVGQD
modifications: biotin on the Avi tag (BirA)
Regarding B2, the Kd in experiment [1] was 3.53 nM.

B3: ephrin-B1 (ligand)
chain: ATPLAKNLEPVSWSSLNPKFLSGKGLVIYPKIGDKLDIICPRAEAGRPYEYYKLYLVRPEQAAACSTVLDPNVLVTCNKPHQEIRFTIKFQEFSPNYMGLEFKKYHDYYITSTSNGSLEGLENREGGVCRTRTMKIVMKVGQDPNAVTPEQLTTSRPSKESDNTVKTATQAPGRGSQGDSDGKHETVNQEEKSGPGAGGGGSGDSDSFFNSK
In the case of B3, in experiment [1], the Kd came out at 6.64 nM.
